Measurements published in the supplement of paper PMC7877785.
± gives the uncertainty stated by the source.

Assay: self-splicing fitness, log relative to wild type (ln ratio); higher = more splicing; Tetrahymena group I intron in knt gene, E. coli kanamycin selection, DiMSum; sequences stand for … in CUCUCU…GGAGGGAAAAGUUAUCAGGCAUGCACCUGGUAGCUAGUCUUUAAACCAAUAGAUUGCAUCGGUUUAAAAGGCAAGACCGUCAAAUUGCGGGAAAGGGGUCAACAGCCGUUCAGUACCAAGUCUCAGGGGAAACUUUGAGAUGGCCUUGCAAAGGGUAUGGUAAUAAGCUGACGGACAUGGUCCUAACCACGCAGCCAAGUCCUAAGUCAACAGAUCUUCUGUUGAUAUGGAUGCAGUUCACAGACUAAAUGUCGGUCGGGGAAGAUGUAUUCUUCUCAUAAGAUAUAGUCGGACCUCUCCUUAAUGGGAGCUAGCGGAUGAAGUGAUGCAACACUGGAGCCGCUGGGAACUAAUUUGUAUGCGAAAGUAUAUUGAUUAGUUUUGGAGUACUCGUGGUCG
Procedure, shortened: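 Colonies from six replicate transformations of E. coli BL21(DE3) were pooled and amplicon-sequenced on an Illumina HiSeq 2500. The library placed an intron with all eight P1ex-region nucleotides randomised inside the knt kanamycin-resistance gene on pET-22b(+), and cells grew overnight at 37°C or 30°C on LB agar with or without 25 μg/mL kanamycin (plus 100 μg/mL carbenicillin, 50 μM IPTG, 0.2% rhamnose). Fitness is the DiMSum error-weighted combination of wild-type-normalised replicate fold changes, kanamycin versus none.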

| Sequence | self-splicing fitness (ln) (30 °C) | self-splicing fitness (ln) (37 °C) |
| --- | --- | --- |
| GAGUAGCAAUAUUACGGAAA | -3.15 ± 0.17 | -2.03 ± 0.12 |
| GAGUAGCAAUAUUACGGAUC | -0.928 ± 0.092 | -0.167 ± 0.12 |
| GAGUAGCAAUAUUACGGCCA | -1.95 ± 0.18 | 0.281 ± 0.26 |
| GAGUAGCAAUAUUACGGCCG | -1.24 ± 0.15 | -0.0588 ± 0.23 |
| GAGUAGCAAUAUUACGGCGG | -4.56 ± 0.36 | -2.02 ± 0.21 |
| GAGUAGCAAUAUUACGGUAC | -2.69 ± 0.37 | -2.01 ± 0.33 |
| GAGUAGCAAUAUUACGGUCU | -1.24 ± 0.15 | -1.22 ± 0.17 |
| GAGUAGCAAUAUUACGGUUA | -0.885 ± 0.14 | -0.497 ± 0.099 |
| GAGUAGCAAUAUUACGGUUU | -0.669 ± 0.092 | -0.275 ± 0.091 |
| GAGUAGCAAUAUUACGUACU | -2.67 ± 0.15 | -1.67 ± 0.16 |
| GAGUAGCAAUAUUACGUAUG | -2.85 ± 0.13 | -2.51 ± 0.19 |
| GAGUAGCAAUAUUACGUCGU | -3.35 ± 0.29 | -0.572 ± 0.2 |
| GAGUAGCAAUAUUACGUCUA | -0.203 ± 0.099 | -0.00603 ± 0.14 |
| GAGUAGCAAUAUUACGUGCU | -3.42 ± 0.19 | -2.31 ± 0.2 |
| GAGUAGCAAUAUUACGUUGU | -2.19 ± 0.17 | -1.41 ± 0.16 |
| GAGUAGCAAUAUUACGUUUG | -3.89 ± 0.16 | -3.88 ± 0.24 |
| GAUAAGCAAUAUUACGACCU | -0.864 ± 0.086 | 0.36 ± 0.1 |
| GAUAAGCAAUAUUACGAUAC | -1.52 ± 0.18 | -1.63 ± 0.27 |
| GAUAAGCAAUAUUACGAUUA | -0.905 ± 0.12 | 0.0831 ± 0.12 |
| GAUAAGCAAUAUUACGCAUA | -0.919 ± 0.13 | -0.783 ± 0.18 |
| GAUAAGCAAUAUUACGCCCU | -0.569 ± 0.13 | 0.292 ± 0.15 |
| GAUAAGCAAUAUUACGCCUC | – | -2.35 ± 0.42 |

| Sequence | self-splicing fitness (ln) (30 °C) | self-splicing fitness (ln) (37 °C) |
| --- | --- | --- |
| GAUAAGCAAUAUUACGCUAU | -2.91 ± 0.26 | -1.01 ± 0.29 |
| GAUAAGCAAUAUUACGCUCC | -1.82 ± 0.34 | – |
| GAUAAGCAAUAUUACGCUGA | – | -1.31 ± 0.22 |
| GAUAAGCAAUAUUACGGCGA | -0.337 ± 0.12 | 0.114 ± 0.13 |
| GAUAAGCAAUAUUACGGCGC | 0.0448 ± 0.13 | -0.881 ± 0.13 |
| GAUAAGCAAUAUUACGGGCA | -1.65 ± 0.12 | -0.177 ± 0.13 |
| GAUAAGCAAUAUUACGUGAC | -2.55 ± 0.32 | -0.818 ± 0.3 |
| GAUAAGCAAUAUUACGUGAG | -2.14 ± 0.096 | -0.113 ± 0.099 |
| GAUAAGCAAUAUUACGUUAA | -3.91 ± 0.43 | -1.52 ± 0.17 |
| GAUAAGCAAUAUUACGUUCG | -1.42 ± 0.098 | -1.05 ± 0.14 |
| GAUAAGCAAUAUUACGUUGU | -2.12 ± 0.089 | -2.6 ± 0.11 |
| GAUAAGCAAUAUUACGUUUU | -2.39 ± 0.098 | -1.48 ± 0.1 |
| GAUCAGCAAUAUUACGAACG | -0.118 ± 0.16 | 0.507 ± 0.17 |
| GAUCAGCAAUAUUACGACAG | -3.24 ± 0.23 | -1.49 ± 0.28 |
| GAUCAGCAAUAUUACGACUC | -0.0915 ± 0.14 | -0.146 ± 0.15 |
| GAUCAGCAAUAUUACGAGAA | -1.89 ± 0.17 | -1.16 ± 0.14 |
| GAUCAGCAAUAUUACGAGCC | -0.966 ± 0.074 | -1.1 ± 0.093 |
| GAUCAGCAAUAUUACGAGCU | -1.42 ± 0.15 | -0.233 ± 0.15 |
| GAUCAGCAAUAUUACGAGGC | – | -1.92 ± 0.23 |
| GAUCAGCAAUAUUACGAGGU | -2.98 ± 0.24 | -2.84 ± 0.22 |
| GAUCAGCAAUAUUACGAGUC | -3.31 ± 0.29 | -0.73 ± 0.16 |
